The Kd is the free concentration of one partner at which half of the binding sites on the other are occupied at equilibrium, for simple one-to-one binding.

This assay concerns the target recombinant GST-FAM21 356–600. Briefly: SPR. Background: SPR reads the build-up and loss of mass on a sensor chip optically.

On to “MBP-CCDC93 (448–631) (from UniProt Q567U6 448-631) (domain or fragment)”, for which the Kd is 0.3 to 0.6 nM.

Source of the values: publication PMC4279232.
